The text below walks through data of PMC5691159 (Nature Communications, 2017).

Where only a bound is given, the exact number is not on record here.

In test [1] the target is PfRh5 (Plasmodium falciparum) (UniProt Q8IFM5). To be noted: cited from earlier work.
The target in test [2] is recombinant Cyclophilin B (Sino Biological) (human). In words: SPR; Biacore T200, 25 °C; CypB (200 RU) amine-coupled on CM5 chip; analyte injected at 30 µl/min; running buffer 50 mM HEPES, 150 mM NaCl, 5 mM MgCl2, pH 7.4; 1:1 (Langmuir) model. (SPR reads the build-up and loss of mass on a sensor chip optically.)
Test [3] has as its target PfRhopH3 on the P. falciparum merozoite surface (P. falciparum (endogenous in merozoites)) (UniProt Q8I395). In words: immunostaining of cells or tissue; free merozoites incubated with 25 µM Cyclophilin B for 2 h at RT, with or without pre-incubation with rabbit anti-PfRhopH3 or anti-Rap2b antibody (1:25, 15 min); bound CypB stained and its fluorescence intensity measured by confocal microscopy (mean of ten merozoites).

The target in a further test is T1, PfRh5 protein (P. falciparum, UniProt Q8IFM5 25-526).
T1 sequence: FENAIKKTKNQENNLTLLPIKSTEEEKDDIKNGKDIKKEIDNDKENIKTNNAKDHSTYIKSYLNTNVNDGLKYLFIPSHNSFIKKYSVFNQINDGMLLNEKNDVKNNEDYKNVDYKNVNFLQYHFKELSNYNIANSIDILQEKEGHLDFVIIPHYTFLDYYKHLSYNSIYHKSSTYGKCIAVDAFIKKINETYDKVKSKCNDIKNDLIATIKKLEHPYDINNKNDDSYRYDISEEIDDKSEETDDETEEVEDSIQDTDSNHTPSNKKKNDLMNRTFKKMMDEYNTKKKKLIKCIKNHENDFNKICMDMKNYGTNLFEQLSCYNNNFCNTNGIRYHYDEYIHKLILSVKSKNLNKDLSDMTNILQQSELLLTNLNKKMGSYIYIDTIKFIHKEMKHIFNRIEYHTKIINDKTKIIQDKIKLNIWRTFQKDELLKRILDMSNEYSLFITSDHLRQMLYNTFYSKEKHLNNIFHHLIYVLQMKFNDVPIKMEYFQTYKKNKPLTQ
In words: SPR; Biacore T200, 25 °C; […]; running buffer 50 mM HEPES, 150 mM NaCl, 5 mM MgCl2, pH 7.4; 1:1 model. The conditions noted are these: both partners purified.

The target of test [4] is recombinant Cyclophilin B (Sino Biological) (human). In words: SPR; Biacore T200, 25 °C; […]; running buffer 50 mM HEPES, 150 mM NaCl, 5 mM MgCl2, pH 7.4; 1:1 (Langmuir) model.

Sequence of PfRhopH3 on the P. falciparum merozoite surface (P. falciparum (endogenous in merozoites)) (Q8I395 25-897): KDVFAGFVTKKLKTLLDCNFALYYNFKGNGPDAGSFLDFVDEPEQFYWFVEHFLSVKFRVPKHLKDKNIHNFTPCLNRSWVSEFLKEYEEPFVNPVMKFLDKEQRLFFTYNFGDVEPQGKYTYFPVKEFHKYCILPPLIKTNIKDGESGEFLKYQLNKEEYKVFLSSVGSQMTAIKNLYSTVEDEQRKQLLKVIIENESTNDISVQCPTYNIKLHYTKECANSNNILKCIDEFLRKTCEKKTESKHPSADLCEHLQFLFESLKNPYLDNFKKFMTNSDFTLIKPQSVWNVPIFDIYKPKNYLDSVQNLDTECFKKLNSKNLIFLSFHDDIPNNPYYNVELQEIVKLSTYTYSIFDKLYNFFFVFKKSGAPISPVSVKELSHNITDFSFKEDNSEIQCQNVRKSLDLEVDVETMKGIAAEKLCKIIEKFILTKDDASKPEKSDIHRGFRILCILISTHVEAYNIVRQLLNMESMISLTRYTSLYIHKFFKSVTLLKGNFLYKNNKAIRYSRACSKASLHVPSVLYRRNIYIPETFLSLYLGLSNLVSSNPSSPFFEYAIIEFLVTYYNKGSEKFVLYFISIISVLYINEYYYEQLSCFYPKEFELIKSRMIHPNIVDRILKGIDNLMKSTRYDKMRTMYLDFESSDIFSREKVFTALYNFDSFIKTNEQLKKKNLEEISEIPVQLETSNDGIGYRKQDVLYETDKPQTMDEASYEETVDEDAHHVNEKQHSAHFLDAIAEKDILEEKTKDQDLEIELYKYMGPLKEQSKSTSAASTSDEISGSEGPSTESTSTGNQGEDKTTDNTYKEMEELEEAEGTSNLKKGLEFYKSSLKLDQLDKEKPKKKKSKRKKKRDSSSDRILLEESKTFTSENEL

For the molecule Basigin (from UniProt P35613), the Kd (commonly the constant that tells how readily two partners part at equilibrium) in test [1] was 1120 nM.
“recombinant Basigin (BSG/CD147, Sino Biological) (from UniProt P35613 138-325) (receptor)”: in test [2], the equilibrium dissociation constant (Kd) stood at 430 nM.
For the molecule “recombinant Cyclophilin B (Sino Biological) (natural protein)”, in test [3], the reduction of binding to merozoites after treatment with anti-RhopH3-C antibody is > 50%.

B1: recombinant PfRhopH3-C protein (aa 617–865) with C-terminal hexa-Histidine tag (domain or fragment)
chain: QLSCFYPKEFELIKSRMIHPNIVDRILKGIDNLMKSTRYDKMRTMYLDFESSDIFSREKVFTALYNFDSFIKTNEQLKKKNLEEISEIPVQLETSNDGIGYRKQDVLYETDKPQTMDEASYEETVDEDAHHVNEKQHSAHFLDAIAEKDILEEKTKDQDLEIELYKYMGPLKEQSKSTSAASTSDEISGSEGPSTESTSTGNQGEDKTTDNTYKEMEELEEAEGTSNLKKGLEFYKSSLKLDQLDKEKP
As to B1, the Kd in the test with PfRh5 protein was determined as 18 nM; in test [4] it was 160 nM.
